Drawing on the PETadex activity labels (doi:10.1021/bi00096a018), this text covers Km and kcat for 5 proteins.

Substrate in the data set: Acetylcholine
As to conditions: pH 7; 22 °C.

B1: unnamed (protein)
chain: MRPPWYPLHTPSLAFPLLFLLLSLLGGGARAEGREDPQLLVRVRGGQLRGIRLKAPGGPVSAFLGIPFAEPPVGSRRFMPPEPKRPWSGVLDATTFQNVCYQNVDTLYPGFEGTEMWNPNRELSEDCLYLNVWTPYPRPASPTPVLIWIYGGGFQSGAASLDVYDGRFLAQVEGAVLVSMNYRVGTFGFLALPGSREAPGNVGLLDQRLALQWVQENIAAFGGDPMSVTLFGESAGAASVGMHILSLPSRSLFHRAVLQSGTPNGPWATVSAGEARRRATLLARLVGCPPGGAGGNDTELIACLRTRPAQDLVDHERHVLPQESIFRFSFVPVVDGDFLSDTPEALINTGDFQDLQVLVGVVKDEGSYFLVYGVPGFSKDNESLISRAQFLAGVRIGVPQASDLAAEAVVLHYTDWLHPEDPTHLRDAMSAVVGDHNVVCPVAQLAGRLAAQGARVYAYIFEHRASTLTWPLWMGVPHGYEIEFIFGLPLDPSLNYTTEERIFAQRLMKYWTNFARTGDPNDPRDSKSPQWPPYTTAAQQYVSLNLKPLEVRRGLRAQTCAFWNRFLPKLLSATDTLDEAERQWKAEFHRWSSYMVHWKNQFDHYSKQERCSDL
Consider B1, for which the Michaelis-Menten constant (Km) was found to be 850 µM and the turnover number (kcat) is 3500 s⁻¹.

B2: unnamed (protein)
chain: MRPPWYPLHTPSLAFPLLFLLLSLLGGGARAEGREDPQLLVRVRGGQLRGIRLKAPGGPVSAFLGIPFAEPPVGSRRFMPPEPKRPWSGVLDATTFQNVCYQYVDTLYPGFEGTEMWNPNRELSEDCLYLNVWTPYPRPASPTPVLIWIYGGGFYSGAASLDVYDGRFLAQVEGAVLVSMNYRVGTFGFLALPGSREAPGNVGLLDQRLALQWVQENIAAFGGDPMSVTLFGESAGAASVGMHILSLPSRSLFHRAVLQSGTPNGPWATVSAGEARRRATLLARLVGCPPGGAGGNDTELIACLRTRPAQDLVDHEWHVLPQESIFRFSFVPVVDGDFLSDTPEALINTGDFQDLQVLVGVVKDEGSYGLVYGVPGFSKDNESLISRAQFLAGVRIGVPQASDLAAEAVVLHYTDWLHPEDPTHLRDAMSAVVGDHNVVCPVAQLAGRLAAQGARVYAYIFEHRASTLTWPLWMGVPHGYEIEFIFGLPLDPSLNYTTEERIFAQRLMKYWTNFARTGDPNDPRDSKSPQWPPYTTAAQQYVSLNLKPLEVRRGLRAQTCAFWNRFLPKLLSATDTLDEAERQWKAEFHRWSSYMVHWKNQFDHYSKQERCSDL
Consider B2, for which the Km was determined as 75 µM and the turnover number (kcat) is 383 s⁻¹.

B3: unnamed (protein)
chain: MRPPWYPLHTPSLAFPLLFLLLSLLGGGARAEGREDPQLLVRVRGGQLRGIRLKAPGGPVSAFLGIPFAEPPVGSRRFMPPEPKRPWSGVLDATTFQNVCYQNVNTLYPGFEGTEMWNPNRELSEDCLYLNVWTPYPRPASPTPVLIWIYGGGFQSGAASLDVYDGRFLAQVEGAVLVSMNYRVGTFGFLALPGSREAPGNVGLLDQRLALQWVQENIAAFGGDPMSVTLFGESAGAASVGMHILSLPSRSLFHRAVLQSGTPNGPWATVSAGEARRRATLLARLVGCPPGGAGGNDTELIACLRTRPAQDLVDHERHVLPQESIFRFSFVPVVDGDFLSDTPEALINTGDFQDLQVLVGVVKDEGSYFLVYGVPGFSKDNESLISRAQFLAGVRIGVPQASDLAAEAVVLHYTDWLHPEDPTHLRDAMSAVVGDHNVVCPVAQLAGRLAAQGARVYAYIFEHRASTLTWPLWMGVPHGYEIEFIFGLPLDPSLNYTTEERIFAQRLMKYWTNFARTGDPNDPRDSKSPQWPPYTTAAQQYVSLNLKPLEVRRGLRAQTCAFWNRFLPKLLSATDTLDEAERQWKAEFHRWSSYMVHWKNQFDHYSKQERCSDL
Consider B3, for which the Michaelis constant (Km) was 6100 µM and the kcat was found to be 2330 s⁻¹.

B4: unnamed (protein)
chain: MRPPWYPLHTPSLAFPLLFLLLSLLGGGARAEGREDPQLLVRVRGGQLRGIRLKAPGGPVSAFLGIPFAEPPVGSRRFMPPEPKRPWSGVLDATTFQNVCYQQVDTLYPGFEGTEMWNPNRELSEDCLYLNVWTPYPRPASPTPVLIWIYGGGFYSGAASLDVYDGRFLAQVEGAVLVSMNYRVGTFGFLALPGSREAPGNVGLLDQRLALQWVQENIAAFGGDPMSVTLFGESAGAASVGMHILSLPSRSLFHRAVLQSGTPNGPWATVSAGEARRRATLLARLVGCPPGGAGGNDTELIACLRTRPAQDLVDHERHVLPQESIFRFSFVPVVDGDFLSDTPEALINTGDFQDLQVLVGVVKDEGSYFLVYGVPGFSKDNESLISRAQFLAGVRIGVPQASDLAAEAVVLHYTDWLHPEDPTHLRDAMSAVVGDHNVVCPVAQLAGRLAAQGARVYAYIFEHRASTLTWPLWMGVPHGYEIEFIFGLPLDPSLNYTTEERIFAQRLMKYWTNFARTGDPNDPRDSKSPQWPPYTTAAQQYVSLNLKPLEVRRGLRAQTCAFWNRFLPKLLSATDTLDEAERQWKAEFHRWSSYMVHWKNQFDHYSKQERCSDL
Consider B4, for which the Km stood at 700 µM and the turnover number (kcat) amounted to 2670 s⁻¹.

B5: unnamed (protein)
chain: MRPPWYPLHTPSLAFPLLFLLLSLLGGGARAEGREDPQLLVRVRGGQLRGIRLKAPGGPVSAFLGIPFAEPPVGSRRFMPPEPKRPWSGVLDATTFQNVCYQYVDTLYPGFEGTEMWNPNRELSEDCLYLNVWTPYPRPASPTPVLIWIYGGGFYSGAASLDVYDGRFLAQVEGAVLVSMNYRVGTFGFLALPGSREAPGNVGLLDQRLALQWVQENIAAFGGDPMSVTLFGESAGAASVGMHILSLPSRSLFHRAVLQSGTPNGPWATVSAGEARRRATLLARLVGCPPGGAGGNDTELIACLRTRPAQDLVDHEWHVLPQESILRFSFVPVVDGDFLSDTPEALINTGDFQDLQVLVGVVKDEGSYFLVYGVPGFSKDNESLISRAQFLAGVRIGVPQASDLAAEAVVLHYTDWLHPEDPTHLRDAMSAVVGDHNVVCPVAQLAGRLAAQGARVYAYIFEHRASTLTWPLWMGVPHGYEIEFIFGLPLDPSLNYTTEERIFAQRLMKYWTNFARTGDPNDPRDSKSPQWPPYTTAAQQYVSLNLKPLEVRRGLRAQTCAFWNRFLPKLLSATDTLDEAERQWKAEFHRWSSYMVHWKNQFDHYSKQERCSDL
On to B5, for which the Km is 49 µM and the kcat was determined as 733 s⁻¹.
